This is an account of results in US20090304706A1.

For the test, the target named is human CD40 (human) (UniProt P25942). In words: Biacore (SPR). On the technique in general: In SPR one partner is held on a chip, and binding of the other changes the refractive index at the surface.
UniProt P25942, sequence (P25942 20-193 limits assumed): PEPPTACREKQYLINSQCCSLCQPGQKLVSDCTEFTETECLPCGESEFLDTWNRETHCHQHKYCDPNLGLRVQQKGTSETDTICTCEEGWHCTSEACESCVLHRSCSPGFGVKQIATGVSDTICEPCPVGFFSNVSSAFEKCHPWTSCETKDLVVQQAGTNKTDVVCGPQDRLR

In general, Kd refers to the constant that tells how readily two partners part at equilibrium. A higher Kd goes with lower affinity. For the molecule monoclonal antibody CHIR-12.12, the Kd worked out at 0.5 nM.

B1: monoclonal antibody CHIR-5.9 (antibody, human IgG1, kappa, V domains shown)
VH: EVQLVQSGAEVKKPGESLKISCKGSGYSFTSYWIGWVRQMPGKGLEWMGIIYPGDSDTRYSPSFQGQVTISADKSISTAYLQWSSLKASDTAMYYCARGTAAGRDYYYYYGMDVWGQGTTVTVSS
VL: AIVMTQPPLSSPVTLGQPASISCRSSQSLVHSDGNTYLNWLQQRPGQPPRLLIYKFFRRLSGVPDRFSGSGAGTDFTLKISRVEAEDVGVYYCMQVTQFPHTFGQGTRLEIKR
With B1, the Kd was found to be 12 nM.
